The values that follow come from article PMC6286387, “Physical and thermodynamic characterization of the rice gibberellin receptor/gibberellin/DELLA protein complex” (Scientific Reports, 2018).

Data set [1] concerns the molecule itself. Put plainly: SAXS; Trx-free proteins, about 3.0 mg/ml, 20 mM sodium phosphate (pH 7.5), 150 mM NaCl, 2.0 mM β-ME, 0.1 mM GA3, 25 °C; mass from I(0), Guinier and Kratky plots.
The target of data set [2] is T1, SLR1(M28-A112), Trx-free (rice (Oryza sativa), UniProt Q7G7J6 28-112).
T1 construct: DELLA protein SLR1 of rice (Oryza sativa), residues M28-A112; 13C/15N-labelled for the NMR spectra; also called SLR(M28-A112); source: E. coli, purified (HiTrap Chelating, Superdex 200; thrombin, HiTrap Chelating, Superdex 75); not shown: Trx, N-terminal, cleaved; His6, N-terminal, cleaved
T1 sequence (looked up): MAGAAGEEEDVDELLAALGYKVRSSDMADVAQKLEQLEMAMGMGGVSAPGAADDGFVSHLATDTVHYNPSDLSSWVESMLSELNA
The description is as above. The note with it: both partners purified.

Data set [3] has as its target SLR1(M1-E104), Trx-free (rice (Oryza sativa)) (UniProt Q7G7J6). Nature of the data set: ITC; 10 μl aliquants of 400 μM OsGID1/GA3 into 1.4482 ml of 50 μM SLR1 variant, 30 °C, 20 mM sodium phosphate (pH 7.5), 150 mM NaCl, 2.0 mM β-ME, 0.1 mM GA3. For orientation: In ITC the heat of successive injections is recorded.
A further data set addresses T2, SLR1(M1-A172) (rice (Oryza sativa), UniProt Q7G7J6 1-172).
T2 construct: DELLA protein SLR1 of rice (Oryza sativa), residues M1-A172; Named without Trx in the ITC experiments; removal of the tag is told in general in the methods; also called SLR(M1-A172); source: E. coli, purified (HiTrap Chelating, Superdex 200; thrombin, HiTrap Chelating, Superdex 75); not shown: Trx, N-terminal, cleaved; His6, N-terminal, cleaved
T2 sequence (looked up): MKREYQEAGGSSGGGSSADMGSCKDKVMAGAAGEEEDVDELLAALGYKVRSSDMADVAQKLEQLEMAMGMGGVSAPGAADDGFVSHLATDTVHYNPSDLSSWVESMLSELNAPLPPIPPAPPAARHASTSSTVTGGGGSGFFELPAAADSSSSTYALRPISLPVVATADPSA
The data set is described as above. The note with it: both partners purified.

In data set [4] the target is T1, SLR1(M28-A112), Trx-free. The data set is described as above. Particulars: both partners purified.
The target of the next data set is T3, SLR1(M1-H327) (rice (Oryza sativa), UniProt Q7G7J6 1-327).
T3 construct: DELLA protein SLR1 of rice (Oryza sativa), residues M1-H327; Named without Trx in the ITC experiments; removal of the tag is told in general in the methods; also called SLR(M1-H327); source: E. coli, purified (HiTrap Chelating, Superdex 200; thrombin, HiTrap Chelating, Superdex 75); not shown: Trx, N-terminal, cleaved; His6, N-terminal, cleaved
T3 sequence (looked up): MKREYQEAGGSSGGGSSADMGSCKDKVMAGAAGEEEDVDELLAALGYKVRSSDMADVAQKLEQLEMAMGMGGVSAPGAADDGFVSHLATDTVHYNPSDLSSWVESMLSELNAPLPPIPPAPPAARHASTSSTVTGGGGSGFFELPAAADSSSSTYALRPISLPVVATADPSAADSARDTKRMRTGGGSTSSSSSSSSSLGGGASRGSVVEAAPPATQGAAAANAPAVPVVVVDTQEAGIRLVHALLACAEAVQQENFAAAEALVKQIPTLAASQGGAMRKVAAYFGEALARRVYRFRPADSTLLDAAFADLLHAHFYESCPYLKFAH
The description is as above. Particulars: both partners purified.

In data set [5] the target is T4, SLR1(M28-A112) ΔSPACE(G69-F83) (rice (Oryza sativa), UniProt Q7G7J6 28-112, ΔSPACE(G69-F83)).
T4 construct: DELLA protein SLR1 of rice (Oryza sativa), residues M28-A112 with G69-F83 deleted; Named without Trx in the ITC experiments; removal of the tag is told in general in the methods; also called SLR(M28-A112)ΔSPACE; source: E. coli, purified (HiTrap Chelating, Superdex 200; thrombin, HiTrap Chelating, Superdex 75); not shown: Trx, N-terminal, cleaved; His6, N-terminal, cleaved
T4 sequence (looked up): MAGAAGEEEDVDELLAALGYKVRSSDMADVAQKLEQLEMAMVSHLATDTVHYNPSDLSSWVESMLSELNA
The data set is described as above. Particulars: both partners purified.

Data set [6] has as its target T1, SLR1(M28-A112), Trx-free. Described as above. The note with it: both partners purified. The source holds these as a separate data set.

B1: OsGID1 (rice gibberellin receptor GID1), Trx-free, used as the OsGID1/GA3 complex (receptor, rice (Oryza sativa), UniProt Q6L545 1-354, looked up)
chain: MAGSDEVNRNECKTVVPLHTWVLISNFKLSYNILRRADGTFERDLGEYLDRRVPANARPLEGVSSFDHIIDQSVGLEVRIYRAAAEGDAEEGAAAVTRPILEFLTDAPAAEPFPVIIFFHGGSFVHSSASSTIYDSLCRRFVKLSKGVVVSVNYRRAPEHRYPCAYDDGWTALKWVMSQPFMRSGGDAQARVFLSGDSSGGNIAHHVAVRAADEGVKVCGNILLNAMFGGTERTESERRLDGKYFVTLQDRDWYWKAYLPEDADRDHPACNPFGPNGRRLGGLPFAKSLIIVSGLDLTCDRQLAYADALREDGHHVKVVQCENATVGFYLLPNTVHYHEVMEEISDFLNANLYY
notes: Gibberellin receptor GID1 of rice (Oryza sativa); theoretical MW of the dimer printed as 79.2 kDa; The printed mass (39.6 kDa a monomer) fits the whole protein; source: recombinant, purified
Usually stoichiometry N stands for the number of molecules, sites or subunits per partner or assembly. B1: the “stoichiometry N” value in data set [1] was 2; with SLR1(M28-A112), Trx-free [2] it was 1; in data set [3], 1; in the data set with SLR1(M1-A172), 1.06; in the data set with SLR1(M28-A112), Trx-free [4], 1.06; with SLR1(M1-H327), 1.01. In addition, the “stoichiometry N” value in data set [5] came out at 0.5; in the data set with SLR1(M28-A112), Trx-free [6], 0.92. The same molecule returned a Ka in data set [3] of 11000 M⁻¹. Besides, the dH in data set [3] is -8.4 kcal/mol; with SLR1(M1-A172), -6.8 kcal/mol; with SLR1(M28-A112), Trx-free [4], -6.9 kcal/mol; with SLR1(M1-H327), -7.1 kcal/mol; in data set [5], -8.3 kcal/mol; in the data set with SLR1(M28-A112), Trx-free [6] it was -8.44 kcal/mol.
